Measurements reported in the DeepSol protein solubility set.

Experiment: soluble on expression in E. coli; label from the status in PepcDB or PDB records

Row | Sequence | soluble on expression in E. coli
1 | MKEHQKLEHPAQVKTKSFEDAAFEMLSTVSPIKLPRDEIPFDSVREIVLGEIIKSKQRNSRSSANDRRNMDDLLDEAPSSSSSSSHVGESSSSNLDRGTMTDEGCTDIGGAPRPIAARLYGDCTRSSSTSTSSAAGPSCSSDVATVENSKKKPLNYREKRLAEIRAARLKKYRENAEIVEFKCEENCLAEVFTKYYLELLDDEAGPANLYYRVVESLDVYFRVKTWESNCPKLLCEFLCDHILKTCQQLNELHESKNMTDEWRARECQIQVLLTLHVYVVTDERRWLDEAINKLRMIYISVGAERLRTFVEEPVTDIYLELIGDGLATIYDELCINLPADLIQYDTGLFKMTETDDSLVVKRRNGAANRLEQMLNETSADLGVGGVERARRTSTEAAAPQRRSLKRRNIEDVPKELLSPARTTRTSRSDYKHFFVEDTPDEKYQKKTTKVEEIEMNEEEDGEIGAESTSKRKTVTIKEEIDEEVKQTPMAKLRASAKLNGKRCSKRLSDLVKLSEERTQVTKKARENLNKLLEKANTPIRSVTRPIRKSVLFGSAGSMSSSPATTKCARGTSSRTSLLNKFSEMEEKKKSPLAVDTSDGHIIHTPSSASESTTPVLRDRATRRRTTRFNDKNYQPNVLKQEMHDPEFDAMESSMASPSKRTTKNSSTAASASTTPVSKWTDRQLKRQLGLTREDLNRYREAMLTTGERNRNKNVKINWESAQVNRAGRVKGAGASEDGTPIFGIARRNVRTMICHVLLNDTNPDTSFDWNKVKFDDFCGKPRTRQFQSLIQKPEAYMESLKQKYIESRVSSAKRMRSNDGASTSSRPAKRRRSNASSPKKQTASSSASSTKSLKSPVKLEAFDDFGFESEADD | soluble
2 | MSLKITAVKCILLSCPYAIPGDLEREFCFADGHRTISVIKVETDEGIHGLGETYIGVFAPEATQAIVRQLEVDLVGRDPMDTAGIANILKLATYYWGRFGMSASIAGGIEMALWDLKGKALGVPVHQLLGGKVHDHIPAYASGGNNKPFPELKKELLGYKKLGFGAVKIRINYLEPHEIIEKVAYSREVLGDKTGLGVDACQGVNPKAWNYKEAIGIVRSLEPYKLLFVEEPCEVTDYKGFAKIRAETDCVIAGGETVSSLVEAENYLEAGALDLFQPDAAIIGGISAFRRVAQMCERKFIKLAVHTWAGGVGIMGNYHAAFASPNCTLLELPNNPFPLREEFLVQPLTLVNGGIAAPTAPGLGVEGHHHHHH | soluble
3 | MGSDKIHHHHHHMIIRKICTTLPVILPEPETIMTVTRPRAERGAFPPGTEHYGRSLLGAPLIWFPAPAASRESGLILAGTHGDENSSVVTLSCALRTLTPSLRRHHVVLCVNPDGCQLGLRANANGVDLNRNFPAANWKEGETVYRWNSAAEERDVVLLTGDKPGSEPETQALCQLIHRIQPAWVVSFHDPLACIEDPRHSELGEWLAQAFELPLVTSVGYETPGSFGSWCADLNLHCITAEFPPISSDEASEKYLFAMANLLRWHPKDAIRPS | not soluble
4 | MGSDKIHHHHHHMSEQQCTELKVLDTVPFGQVSGDAQFYALRLEKPRWKSWKPGQFVMIRPQGWALDMLWARPFSICRVSSRDLVLFFQAVGRGTRRLADLKAGDTVVVWGPLGNSFAVEPETPTLMLAGGIGIAPFIGYAHTHPKPWNLWMEFGHRMPLGCYPFESINEKIMADNHQEECPDDLLRFIERLEKRIAEYAEQDGLVLACGPTPFLRTVQRFALQYGARCQLSLETRMACGVGGCLGCVTSTTEKHHLHHTQAGKAQVCNNGPVFWADQVDLDKA | not soluble
5 | MKVEELAESISSYAVGILKEEGIEELFPPQAEAVEKVFSGKNLLLAMPTAAGKTLLAEMAMVREAIKGGKSLYVVPLRALAGEKYESFKKWEKIGLRIGISTGDYESRDEHLGDCDIIVTTSEKADSLIRNRASWIKAVSCLVVDEIHLLDSEKRGATLEILVTKMRRMNKALRVIGLSATAPNVTEIAEWLDADYYVSDWRPVPLVEGVLCEGTLELFDGAFSTSRRVKFEELVEECVAENGGVLVFESTRRGAEKTAVKLSAITAKYVENEGLEKAILEENEGEMSRKLAECVRKGAAFHHAGLLNGQRRVVEDAFRRGNIKVVVATPTLAAGVNLPARRVIVRSLYRFDGYSKRIKVSEYKQMAGRAGRPGMDERGEAIIIVGKRDREIAVKRYIFGEPERITSKLGVETHLRFHSLSIICDGYAKTLEELEDFFADTFFFKQNEISLSYELERVVRQLENWGMVVEAAHLAPTKLGSLVSRLYIDPLTGFIFHDVLSRMELSDIGALHLICRTPDMERLTVRKTDSWVEEEAFRLRKELSYYPSDFSVEYDWFLSEVKTALCLKDWIEEKDEDEICAKYGIAPGDLRRIVETAEWLSNAMNRIAEEVGNTSVSGLTERIKHGVKEELLELVRIRHIGRVRARKLYNAGIRNAEDIVRHREKVASLIGRGIAERVVEGISVKSLNPESAAALEHHHHHH | soluble
6 | MSLEQCYTDVTEFAIPASTQKLYLSPVLDGFNSEIIAYNLSTSPNLEQVQTMLEQAFTEKHYENTILHSDQGWQYQHDSYHQFLEGKGIQASMSRKGNSQDNGMMESFFGILKSEMFYGYEKTFKSLNQLEQAIVDYIDYYNNKRIKVKLKGLSPVQYRTKSFGEGHHHHHH | soluble
7 | GMTNHNNSGKKKVAILIEQAVEDTEFIIPCNGLKQAGFEVVVLGSRMNEKYKGKRGRLSTQADGTTTEAIASEFDAVVIPGGMAPDKMRRNPNTVRFVQEAMEQGKLVAAVCHGPQVLIEGDLLRGKQATGFIAISKDMMNAGADYLDEALVVDGNLITSREPGDLAIFTTAILSRLGYGGKDAALPDEKDRNAEWWKLADAWGGSTKGDIVRGLNTALGGERYSLEALEKYTEKESDVEAKALFQEMITNKQRHIEYLETYLTRLGEKPSLSANIANQYAKVKTALTGSDDIYQIRSALGDIQTGIGDIGNLCAMYTDPIATAIFKEIYKDLVKYEQRLVSLYRTRTNATVQPPKPTTGAAVSM | soluble
8 | MADEVTIGFRFYPTEEELVSFYLRNQLEGRSDDSMHRVIPVLDVFEVEPSHLPNVAGVRCRGDAEQWFFFVPRQEREARGGRPSRTTGSGYWKATGSPGPVFSKDNKMIGAKKTMVFYTGKAPTGRKTKWKMNEYHAVDETVNASTIPKLRREFSLCRVYITTGSSRAFDRRPEGVLQTERMLTSDVAVAETSFRVESSLETSISGGEHIDVSMNTEFVDGLSEPMWDWEQLTWP | soluble
9 | GPGSMEYNARYQVSPRDQFLRKVVVVPYGVLGMQMTLQGGLVRAGSEPDESTFIVDPANLRHIFTTAVGATGASGAIYNMLGLRGPFPDEVVQAISRVCDTKFYKYGERANVIHVVDPDFREGAWSEREAAVELSRAYRNVFHEFVRGDGDVLRVPPLSSGVLSGSLYNQLPIITQSAVAMAFEQLHTFDREYLLRRDKQVELCVFMNREWDMYQNVFKNCTQPSKL | soluble
10 | GSMKPMGPNDYMVIGLARIDDRLIHGQVATRWTKETNVSRIIVVSDEVAADTVRKTLLTQVAPPGVTAHVVDVAKMIRVYNNPKYAGERVMLLFTNPTDVERLVEGGVKITSVNVGGMAFRQGKTQVNNAVSVDEKDIEAFKKLNARGIELEVRKVSTDPKLKMMDLISKIDK | soluble
11 | MKYDLIIIGSGSVGAAAGYYATRAGLKVLMTDAHMPPHQQGSHHGDTRLIRHAYGEGEKYVPLVLRAQTLWDELSTHNEEPIFVRSGVVNLGPADSAFLANVARSAQQWQLNVERLDATALMTRWPEIRVPDNYIGLFEADSGFLRSELAITTWLRLAREAGCAQLFNSPVSHIHHDDNGVTIETSEGCYHASKALISAGTWVKALVPELPVQPVRKVFAWFKADGRYSTKNRFPAFTGEMPNGDQYYGFPAENDELKIGKHNGGQLIQAPEERKPFAAVASDGAEAFPFLRNVLPGIGGCLHGAACTYDNSPDEDFIIDTLPGHENTLVITGLSGHGFKFAPVLGEIAADFALGKTPSFDLTPFRLSRFSQ | not soluble
12 | MGSDKIHHHHHHMEVEIVERNAFTAVGKKRTFSVENDAQKEKISQFWQEVNANGDAERINELAEFATIDGILGVCQMNGDQMDYYIAIESELTPPADMEKLTIPASKWAIFKSVGPLPNAIQKVWEYIYGEWFQTCNYTHGNAPELEVYTEGDTTAVDYYSEVWIPVVEKD | not soluble
13 | MKYQVKQVAEISGVSIRTLHHYDNIELLNPSALTDAGYRLYSDADLERLQQILFFKEIGFRLDEIKEMLDHPNFDRKAALQSQKEILMKKKQRMDEMIQTIDRTLLSVD | soluble
